Values joined by “and” are separate entries in the source; they are usually repeats but may differ in a detail not shown here. Equal values may be shown once.
Experiments:
Assay in all cases: purified protein, by the assay type
Settings in all cases: other: O2 consumption, 5.0 mM ascorbate, pH 6.0, 37 °C
[1] = substrate: O=C(O)CNC(=O)CNC(=O)c1ccc([N+](=O)[O-])cc1
[2] = substrate: O=C(O)CNC(=O)c1cccnc1
[3] = substrate: C[C@@H](NC(=O)OCc1ccccc1)C(=O)O
[4] = substrate: CC(=O)NCC(=O)NCC(=O)O
[5] = substrate: O=C(O)CNC(=O)c1ccccc1
[6] = substrate: O=C(O)CNC(=O)CCCCCc1ccccc1
[7] = substrate: O=C(O)CNC(=O)c1ccc(O)cc1
[8] = substrate: O=C(O)CNC(=O)c1ccc(Cl)cc1
[9] = substrate: O=C(O)CNC(=O)CCCCCCCc1ccccc1
[10] = substrate: O=C(O)CNC(=O)C1CC1c1ccccc1
[11] = substrate: O=C(O)CNC(=O)Nc1ccccc1
[12] = substrate: O=C(O)CNC(=O)CCCCc1ccccc1
[13] = substrate: O=C(O)CNC(=O)c1ccc([N+](=O)[O-])cc1
[14] = substrate: CC(C)CCC(=O)NCC(=O)O
[15] = substrate: CC(Cc1ccccc1)C(=O)NCC(=O)O
[16] = substrate: O=C(O)CNC(=O)OCc1ccccc1
[17] = substrate: O=C(O)CNC(=O)/C=C/c1ccco1
[18] = substrate: CC(C)(C)OC(=O)NCC(=O)O
[19] = substrate: C[C@@H](NC(=O)c1ccccc1)C(=O)O
[20] = substrate: CC(C)(C)OC(=O)NCC(=O)NCC(=O)O
[21] = substrate: O=C(O)CNC(=O)c1ccc(Br)cc1
[22] = substrate: CCCc1ccc(C(=O)NCC(=O)O)cc1
[23] = substrate: O=C(O)CNC(=S)CCc1ccccc1
[24] = substrate: O=C(O)CNC(=O)[C@@H]1CCC(=O)N1
[25] = substrate: O=C(O)CNC(=O)CNC(=O)CNC(=O)c1ccccc1
[26] = substrate: O=C(O)CNC(=O)c1cccs1
[27] = substrate: O=C(O)CNC(=O)CCCc1ccccc1

B1: rat PAM (Rattus norvegicus) (protein)
chain: FKETTRSFSNECLGTIGPVTPLDASDFALDIRMPGVTPKESDTYFCMSMRLPVDEEAFVIDFKPRASMDTVHHMLLFGCNMPSSTGSYWFCDEGTCTDKANILYAWARNAPPTRLPKGVGFRVGGETGSKYFVLQVHYGDISAFRDNHKDCSGVSVHLTRVPQPLIAGMYLMMSVDTVIPPGEKVVNADISCQYKMYPMHVFAYRVHTHHLGKVVSGYRVRNGQWTLIGRQNPQLPQAFYPVEHPVDVTFGDILAARCVFTGEGRTEATHIGGTSSDEMCNLYIMYYMEAKYALSFMTCTKNVAPDMFRTIPAEANIPIPVKPDMVMMHGHHKEAENKEKSALMQQPKQGEEEVLEQDFHVEEELDWPGVYLLPGQVSGVALDSKNNLVIFHRGDHVWDGNSFDSKFVYQQRGLGPIEEDTILVIDPNNAEILQSSGKNLFYLPHGLSIDTDGNYWVTDVALHQVFKLDPHSKEGPLLILGRSMQPGSDQNHFCQPTDVAVEPSTGAVFVSDGYCNSRIVQFSPSGKFVTQWGEESSGSSPRPGQFSVPHSLALVPHLDQLCVADRENGRIQCFKTDTKEFVREIKHASFGRNVFAISYIPGFLFAVNGKPYFGDQEPVQGFVMNFSSGEIIDVFKPVRKHFDMPHDIVASEDGTVYIGDAHTNTVWKFTLTEKMEHRSV
Q: B1 was tested. Which Km [1] did it give?
A: 110 ± 7 µM

Q: What about the kcat [1] of the same protein?
A: 8.7 ± 0.2 s⁻¹

Q: And the kcat/Km [1]?
A: 76000 ± 4000 M⁻¹ s⁻¹

Q: And the Km [2]?
A: 1900 ± 100 µM

Q: What about the kcat [2] of the same protein?
A: 8 ± 0.2 s⁻¹

Q: What about the kcat/Km [2] of the same protein?
A: 4200 ± 200 M⁻¹ s⁻¹

Q: What about the Km [3] of the same protein?
A: 35000 ± 5000 µM

Q: What about the kcat [3] of the same protein?
A: 1.4 ± 0.1 s⁻¹

Q: What about the kcat/Km [3] of the same protein?
A: 41 ± 5 M⁻¹ s⁻¹

Q: What about the kcat [4] of the same protein?
A: 8.9 ± 0.2 s⁻¹

Q: What about the kcat/Km [4] of the same protein?
A: 5900 ± 200 M⁻¹ s⁻¹

Q: And the Km [5]?
A: 1300 ± 40 µM

Q: What about the kcat [5] of the same protein?
A: 8.2 ± 0.08 s⁻¹

Q: And the kcat/Km [5]?
A: 6200 ± 100 M⁻¹ s⁻¹

Q: What about the Km [6] of the same protein?
A: 0.051 ± 0.007 0.043 ± 0.005 mM

Q: What about the kcat [6] of the same protein?
A: 11 ± 0.4 s⁻¹

Q: What about the kcat/Km [6] of the same protein?
A: 200000 ± 20000 M⁻¹ s⁻¹

Q: What about the Km [7] of the same protein?
A: 1700 ± 100 µM

Q: What about the kcat [7] of the same protein?
A: 5.8 ± 0.1 s⁻¹

Q: What about the kcat/Km [7] of the same protein?
A: 3500 ± 200 M⁻¹ s⁻¹

Q: And the Km [8]?
A: 620 ± 40 µM

Q: What about the kcat [8] of the same protein?
A: 4.1 ± 0.1 s⁻¹

Q: What about the kcat/Km [8] of the same protein?
A: 6600 ± 200 M⁻¹ s⁻¹

Q: And the Km [9]?
A: 0.10 ± 0.009 0.064 ± 0.006 mM

Q: What about the kcat [9] of the same protein?
A: 8 ± 0.3 s⁻¹

Q: And the kcat/Km [9]?
A: 76000 ± 4000 M⁻¹ s⁻¹

Q: What about the Km [10] of the same protein?
A: 900 ± 70 µM

Q: What about the kcat [10] of the same protein?
A: 10 ± 0.3 s⁻¹

Q: And the kcat/Km [10]?
A: 11000 ± 700 M⁻¹ s⁻¹

Q: What about the Km [11] of the same protein?
A: 0.36 ± 0.08 0.45 ± 0.05 mM

Q: And the kcat [11]?
A: 9.7 ± 0.9 s⁻¹

Q: What about the kcat/Km [11] of the same protein?
A: 27000 ± 4000 M⁻¹ s⁻¹

Q: What about the kcat [12] of the same protein?
A: 12 ± 0.4 s⁻¹

Q: What about the kcat/Km [12] of the same protein?
A: 76000 ± 4000 M⁻¹ s⁻¹

Q: What about the Km [13] of the same protein?
A: 470 ± 10 µM

Q: What about the kcat [13] of the same protein?
A: 4.2 ± 0.04 s⁻¹

Q: What about the kcat/Km [13] of the same protein?
A: 8900 ± 200 M⁻¹ s⁻¹

Q: And the Km [14]?
A: 280 ± 30 µM

Q: And the kcat [14]?
A: 6.6 ± 0.3 s⁻¹

Q: And the kcat/Km [14]?
A: 23000 ± 2000 M⁻¹ s⁻¹

Q: What about the Km [15] of the same protein?
A: 4100 ± 300 µM

Q: What about the kcat [15] of the same protein?
A: 18 ± 0.9 s⁻¹

Q: What about the kcat/Km [15] of the same protein?
A: 4300 ± 100 M⁻¹ s⁻¹

Q: What about the Km [16] of the same protein?
A: 590 ± 20 µM

Q: What about the Km [17] of the same protein?
A: 1200 ± 100 µM

Q: What about the kcat [17] of the same protein?
A: 3.4 ± 0.1 s⁻¹

Q: And the kcat/Km [17]?
A: 2800 ± 100 M⁻¹ s⁻¹

Q: What about the Km [18] of the same protein?
A: 3700 ± 200 µM

Q: What about the kcat [18] of the same protein?
A: 6.3 ± 0.3 s⁻¹

Q: What about the kcat/Km [18] of the same protein?
A: 1700 ± 50 M⁻¹ s⁻¹

Q: And the Km [19]?
A: 84000 ± 23000 µM

Q: What about the kcat [19] of the same protein?
A: 0.27 ± 0.03 s⁻¹

Q: What about the kcat/Km [19] of the same protein?
A: 3.2 ± 0.6 M⁻¹ s⁻¹

Q: And the Km [20]?
A: 300 ± 30 µM

Q: And the kcat [20]?
A: 7.5 ± 0.2 s⁻¹

Q: And the kcat/Km [20]?
A: 25000 ± 1000 M⁻¹ s⁻¹

Q: What about the Km [21] of the same protein?
A: 520 ± 60 µM

Q: What about the kcat/Km [21] of the same protein?
A: 4900 ± 400 M⁻¹ s⁻¹

Q: And the Km [22]?
A: 1200 ± 200 µM

Q: And the kcat [22]?
A: 5.1 ± 0.4 s⁻¹

Q: And the kcat/Km [22]?
A: 4200 ± 600 M⁻¹ s⁻¹

Q: And the Km [23]?
A: 0.038 ± 0.02 0.023 ± 0.002 mM

Q: What about the kcat [23] of the same protein?
A: 1.6 ± 0.2 s⁻¹

Q: And the kcat/Km [23]?
A: 42000 ± 14000 M⁻¹ s⁻¹

Q: What about the Km [24] of the same protein?
A: 300 µM and 310 ± 30 µM

Q: And the Km [25]?
A: 310 ± 60 µM

Q: What about the kcat [25] of the same protein?
A: 8.8 ± 1.3 s⁻¹

Q: What about the kcat/Km [25] of the same protein?
A: 29000 ± 2000 M⁻¹ s⁻¹

Q: What about the Km [26] of the same protein?
A: 1600 ± 100 µM

Q: What about the kcat/Km [26] of the same protein?
A: 6000 ± 300 M⁻¹ s⁻¹

Q: What about the Km [27] of the same protein?
A: 160 ± 20 µM

Q: And the kcat [27]?
A: 11 ± 0.4 s⁻¹

Q: And the kcat/Km [27]?
A: 70000 ± 7000 M⁻¹ s⁻¹

— publication PMC2668526 (Bioorganic & medicinal chemistry, 2008)
